Results taken from patent publication US20130011378A1, “Stable formulations of a hyaluronan-degrading enzyme” (priority 2011, published 2013).
Read-outs that look alike come from different tables or passages of the source. Each block holds one molecule with its values, some of them ahead of it.

What was measured:
[1] = RP-HPLC: insulin apparent solubility / percent recovery
Description: Apparent solubility was measured as the percent insulin recovery as compared to the initial formulations/conditions.
Samples were prepared by withdrawing 100 μL from each vial at every time point and centrifuging prior to loading. Samples were stored in an autosampler at 4° C. prior to use, and were considered stable for 3 days after preparation. All samples were tested in duplicate.
For insulin, 20 μL was injected for each HPLC run.
To determine the apparent solubility, the peak area of insulin/insulin analog main peak and desamido peak were integrated and combined together to calculate the percentage relative to the standards. […] The data were processed using Design-Expert® 7.0 (StatEase) and the “historical data” feature. Insulin percent purity was expressed as the percent of main insulin versus all insulin species.

rHuPH20 [2] = biological target: T1, rHuPH20 (Homo sapiens, UniProt P38567); experiment: Determination of hyaluronidase activity of rHuPH20, turbidimetric assay (Example 2, variant not specified); format: biochemical; settings: for Effect on rHuPH20 enzymatic activity: stabilizer screening in rHuPH20/insulin formulation, semi-quantitative in comparison with NaCl, samples incubated at 30° C. for about one week
T1 construct: made in house; host or cells: CHO cells (DG44 CHO, HZ24 plasmid, clone 2B2)
T1 sequence (P38567 36-482): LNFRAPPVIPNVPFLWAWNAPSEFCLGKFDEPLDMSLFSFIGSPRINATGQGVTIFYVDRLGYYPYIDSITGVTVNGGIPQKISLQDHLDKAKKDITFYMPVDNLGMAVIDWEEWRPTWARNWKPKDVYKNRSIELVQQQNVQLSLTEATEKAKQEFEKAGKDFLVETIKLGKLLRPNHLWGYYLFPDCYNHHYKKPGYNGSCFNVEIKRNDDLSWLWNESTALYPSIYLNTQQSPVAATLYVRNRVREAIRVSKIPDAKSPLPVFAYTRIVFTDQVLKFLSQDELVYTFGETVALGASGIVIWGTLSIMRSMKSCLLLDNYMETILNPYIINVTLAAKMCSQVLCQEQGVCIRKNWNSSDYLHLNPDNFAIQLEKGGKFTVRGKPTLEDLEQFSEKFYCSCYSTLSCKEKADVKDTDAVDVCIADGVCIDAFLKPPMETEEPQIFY

[3] = tested on: Aspergillus niger, Pseudomonas aeruginosa, E. coli, Staphylococcus aureus and Candida albicans; experiment: Antimicrobial (preservative) effectiveness test, USP / EPA / EPB criteria; format: cell-based
Source text: One of skill in the art is familiar with the antimicrobial preservative effectiveness test and standards to be meet under the USP and EPA or EPB in order to meet minimum requirements. […] The preservative properties of the composition are deemed adequate if, under the conditions of the test, there is a significant fall or no increase, as specified in Table 6, below, in the number of microorganisms in the inoculated composition after the times and at the temperatures prescribed. The criteria for evaluation are given in terms of the log reduction in the number of viable microorganism as compared to the initial sample or the previous timepoint.
The number of viable microorganisms (cfu) in each sample is determined by plate count or membrane filtration. Finally, the cfu for each sample is compared to either the inoculum or the previous sample and log reduction is determined.
The tests were performed according to the guidance of EP and USP by a contract analytical laboratory (Quadrants Scientific, Inc., San Diego, Calif.). […] Raw data (CFU/mL) was converted to a log 10 unit reduction from the measured inoculum. […]
The tests were performed according to the guidance of EP and USP by a contract analytical laboratory (Quadrants Scientific, Inc., San Diego, Calif. and Lancaster Laboratories, Lancaster, Pa.). […] Raw data (CFU/mL) was converted to a log 10 unit reduction from the measured inoculum. […]

rHuPH20 [4] = biological target: T1, rHuPH20; experiment: RP-HPLC: rHuPH20 oxidation peaks (ox-1, ox-2); format: physicochemical; settings: 40 mM methionine, rHuPH20/insulin formulation, 30° C., 5 weeks
Source text: The stability of hyaluronan degrading enzymes in a composition, such as in the co-formulations provided herein, also can be assessed using other methods and assays known in the art. […] Percent recovery is the relative percentage of the hyaluronidase in the co-formulation over time and at various storage conditions, as compared to a reference sample. […] An increase in particle size and a decrease in the melting temperature indicates denaturation and subsequent aggregation of the hyaluronidase. […] Other methods known to one of skill in the art that can be used to determine the stability of the hyaluronidase in the co-formulations provided herein, include polyacrylamide gel electrophoresis (PAGE), immunoblotting, nuclear magnetic resonance (NMR) spectroscopy, mass spectrometry, circular dichroism (CD) and dye-based fluorescence assays.
The formulations varied in the surfactant and surfactant concentration and the buffer (either histidine or phosphate).
Methionine oxidation can be prevented by addition of free methionine as a scavenger to react with potential oxidative compounds.

[5] = Lysyl lysine as buffer: titration curve and effect of temperature on pH; format: physicochemical; settings: rHuPH20/insulin glulisine formulations, 30-105 mM lysyl lysine
[6] = reported; cited from earlier work
rHuPH20 [7] = biological target: T1, rHuPH20; experiment: Differential scanning calorimetry: Tm of rHuPH20; format: physicochemical; settings: in the presence of […] m-cresol
[8] = stabilizer screening in rHuPH20/insulin formulation, semi-quantitative in comparison with NaCl, RP-HPLC, samples stored at 5° C.

Molecule: CSCC[C@H](N)C(=O)O [methionine]
Effect on insulin solubility [1, 8]: No effect | rHuPH20 enzymatic activity (rHuPH20 [2]; 1 mM methionine, 30° C. for one month, starting 650 U/mL): 525 U/mL | rHuPH20 enzymatic activity (rHuPH20 [2]; 20 mM methionine, 30° C. for one month, starting 650 U/mL): 522 U/mL | Effect on rHuPH20 enzymatic activity (rHuPH20 [2]): No effect | Effect on antimicrobial effectiveness ([3]; component concentration (50-100 mM), formulations with 100 U/mL insulin or analog and 5 μg/mL rHuPH20): Neutral | ox-1 peak of rHuPH20 compared to formulations without methionine (rHuPH20 [4]): significantly smaller

Molecule: [Cl-].[Na+] [NaCl]
Effect on antimicrobial effectiveness ([3]; component concentration (80-100 mM)): Neutral

Molecule: Cl.Cl.NCCCCC(N)C(=O)NC(CCCCN)C(=O)O (stereo not shown) [Lys-Lys, Lys-Lys dihydrochloride]
Effect on insulin solubility [1, 8]: Reduced solubility | Effect on insulin solubility ([1]; stabilizer screening, samples stored at 5° C.): caused severe precipitation of insulin | Effect on rHuPH20 enzymatic activity (rHuPH20 [2]): Strong stabilizer | effect on rHuPH20 stability in comparison with NaCl (rHuPH20 [2]; stabilizer screening, 30° C. about one week, […] m-cresol, 0.2% phenol): stabilized rHuPH20 more than NaCl | temperature effect (dpH/dT) [5]: −0.033 U/° C.

Effect on insulin solubility [1]: No effect | Effect on rHuPH20 enzymatic activity (rHuPH20 [2]): No effect
Molecule: NC(CO)(CO)CO [Tris]
temperature effect (dpH/dT) [6]: −0.028 U/° C.

B1: rHuPH20: secreted soluble recombinant human PH20 expressed in CHO cells; nucleic acid encodes amino acids 36-482 of SEQ ID NO:1 (protein, listed as Homo sapiens)
chain: T1 sequence (P38567 36-482)
modifications: precursor human PH20
rHuPH20 enzymatic activity (rHuPH20 [2]; 2-8° C., 5 Months, pH 7.0, NaCl 50 mM): 494.4796 | rHuPH20 enzymatic activity (rHuPH20 [2]; 2-8° C., 5 Months, pH 7.0, NaCl 80 mM): 575.3274 | rHuPH20 enzymatic activity (rHuPH20 [2]; 2-8° C., 5 Months, pH 7.0, NaCl 110 mM): 615.3546 | rHuPH20 enzymatic activity (rHuPH20 [2]; 2-8° C., 5 Months, pH 7.0, NaCl 140 mM): 582.4274 | rHuPH20 enzymatic activity (rHuPH20 [2]; 2-8° C., 5 Months, pH 7.2, NaCl 50 mM): 481.6035 | rHuPH20 enzymatic activity (rHuPH20 [2]; 2-8° C., 5 Months, pH 7.2, NaCl 80 mM): 566.2521 | rHuPH20 enzymatic activity (rHuPH20 [2]; 2-8° C., 5 Months, pH 7.2, NaCl 110 mM): 593.2027 | rHuPH20 enzymatic activity (rHuPH20 [2]; 2-8° C., 5 Months, pH 7.2, NaCl 140 mM): 585.9948 | rHuPH20 enzymatic activity (rHuPH20 [2]; 2-8° C., 5 Months, pH 7.4, NaCl 50 mM): 526.6628 | rHuPH20 enzymatic activity (rHuPH20 [2]; 2-8° C., 5 Months, pH 7.4, NaCl 80 mM): 564.7769 | rHuPH20 enzymatic activity (rHuPH20 [2]; 2-8° C., 5 Months, pH 7.4, NaCl 110 mM): 618.3856 | rHuPH20 enzymatic activity (rHuPH20 [2]; 2-8° C., 5 Months, pH 7.4, NaCl 140 mM): 585.9813 | rHuPH20 enzymatic activity (rHuPH20 [2]; 2-8° C., 5 Months, pH 7.6, NaCl 50 mM): 508.0571 | rHuPH20 enzymatic activity (rHuPH20 [2]; 2-8° C., 5 Months, pH 7.6, NaCl 80 mM): 546.4209 | rHuPH20 enzymatic activity (rHuPH20 [2]; 2-8° C., 5 Months, pH 7.6, NaCl 110 mM): 581.6326 | rHuPH20 enzymatic activity (rHuPH20 [2]; 2-8° C., 5 Months, pH 7.6, NaCl 140 mM): 594.6197 | rHuPH20 enzymatic activity (rHuPH20 [2]; 2-8° C., 9 Months, pH 7.0, NaCl 50 mM): 436.5115 | rHuPH20 enzymatic activity (rHuPH20 [2]; 2-8° C., 9 Months, pH 7.0, NaCl 80 mM): 513.9692 | rHuPH20 enzymatic activity (rHuPH20 [2]; 2-8° C., 9 Months, pH 7.0, NaCl 110 mM): 551.0218 | rHuPH20 enzymatic activity (rHuPH20 [2]; 2-8° C., 9 Months, pH 7.0, NaCl 140 mM): 554.6513 | rHuPH20 enzymatic activity (rHuPH20 [2]; 2-8° C., 9 Months, pH 7.2, NaCl 50 mM): 451.8324 | rHuPH20 enzymatic activity (rHuPH20 [2]; 2-8° C., 9 Months, pH 7.2, NaCl 80 mM): 518.0740 | rHuPH20 enzymatic activity (rHuPH20 [2]; 2-8° C., 9 Months, pH 7.2, NaCl 110 mM): 553.1847 | rHuPH20 enzymatic activity (rHuPH20 [2]; 2-8° C., 9 Months, pH 7.2, NaCl 140 mM): 536.7846 | rHuPH20 enzymatic activity (rHuPH20 [2]; 2-8° C., 9 Months, pH 7.4, NaCl 50 mM): 466.1871 | rHuPH20 enzymatic activity (rHuPH20 [2]; 2-8° C., 9 Months, pH 7.4, NaCl 80 mM): 509.9032 | rHuPH20 enzymatic activity (rHuPH20 [2]; 2-8° C., 9 Months, pH 7.4, NaCl 110 mM): 560.4847 | rHuPH20 enzymatic activity (rHuPH20 [2]; 2-8° C., 9 Months, pH 7.4, NaCl 140 mM): 542.4534 | rHuPH20 enzymatic activity (rHuPH20 [2]; 2-8° C., 9 Months, pH 7.6, NaCl 50 mM): 464.8964 | rHuPH20 enzymatic activity (rHuPH20 [2]; 2-8° C., 9 Months, pH 7.6, NaCl 80 mM): 515.3382 | rHuPH20 enzymatic activity (rHuPH20 [2]; 2-8° C., 9 Months, pH 7.6, NaCl 110 mM): 531.9202 | rHuPH20 enzymatic activity (rHuPH20 [2]; 2-8° C., 9 Months, pH 7.6, NaCl 140 mM): 523.5385 | time rHuPH20 stable (rHuPH20 [2]; 5° C., […] m-cresol, […] phenol, pH 7.0-7.6, 50-140 mM NaCl): 12 months | reduction of Tm of rHuPH20 by DSC (rHuPH20 [7]): about 2 °C
